± gives the uncertainty stated by the source.

Protein stability index data for 39 sequences are collected here from the supplement of paper PMC9732359.

The data set can be described thus: protein stability index of a GFP-peptide fusion (yeast GPS) (PSI 1-4); higher = more stable; sorted into four equal gates, so the index is relative within each strain. The procedure, abridged:
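Mid-log yeast cultures in leucine-free medium, carrying a pooled plasmid library, were sorted into four equal gates by their GFP/Cherry fluorescence ratio. Each plasmid expressed Cherry along with GFP fused upstream of a tiled 17-residue yeast protein peptide. Plasmids recovered from each gate were PCR-amplified and Illumina-sequenced, with reads assigned to strains by barcodes. The protein stability index was obtained by summing each gate's read frequency weighted by its gate number.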

As to HIEKLENEFVVLLDARD [CDC53], the protein stability index by setting is: (doa10∆) 3.35 ± 0.088; (pdr5∆) 3.05 ± 0.081; (san1∆) 2.9 ± 0.14; (ubr1∆) 3.27 ± 0.091.

Consider AITADLGSSEAENLLQL [YGL172W/NUP49], for which the protein stability index (pdr5∆) came out at 1.31 ± 0.21.

QPNEISFKYLSNNDEDD [RGR1] came in with a protein stability index (doa10∆) of 2.37 ± 0.053, a protein stability index (pdr5∆) of 2.29 ± 0.041, a protein stability index (san1∆) of 1.88 ± 0.072 and a protein stability index (ubr1∆) of 2.36 ± 0.039.

Turning to QLYFQKNGAQDLVLQIL [RRI2], the protein stability index amounted to 2.6 ± 0.12 (doa10∆), 2.81 ± 0.12 (pdr5∆), 2.32 ± 0.097 (san1∆) and 2.62 ± 0.048 (ubr1∆).

Consider QTLSSHLEALQPLFSTV [PGD1], for which the protein stability index was 1.96 ± 0.031 (doa10∆), 1.97 ± 0.037 (pdr5∆), 2.2 ± 0.052 (san1∆) and 2.49 ± 0.034 (ubr1∆).

As for FTAGARAKIVKAGGECI [RPL18A], the protein stability index was 1.29 ± 0.081 (doa10∆), 1.27 ± 0.067 (pdr5∆), 1.18 ± 0.17 (san1∆) and 1.13 ± 0.061 (ubr1∆).

For the sequence EKPAPVRTHMRNMIIVP [RPS15], the protein stability index runs as follows: (doa10∆) 1.13 ± 0.064; (pdr5∆) 1.17 ± 0.081; (san1∆) 1.21 ± 0.19; (ubr1∆) 1.14 ± 0.095.

The sequence YDRHQSSSKQQSRLFIN [SMC4] showed a protein stability index (ubr1∆) of 3.31 ± 0.2.

On to VVFDSNEAPPKTSLADW [YMR153W/NUP53], for which the protein stability index stood at 3.19 ± 0.06 (doa10∆), 3.28 ± 0.051 (pdr5∆), 3.06 ± 0.073 (san1∆) and 3.33 ± 0.096 (ubr1∆).

For the sequence FHSEISPDSTVNRSVVV [YAR002W/NUP60], the protein stability index by setting is: (doa10∆) 1.75 ± 0.11; (pdr5∆) 1.76 ± 0.052; (san1∆) 1.76 ± 0.13; (ubr1∆) 2.16 ± 0.059.

On to GSTFKVNQEFIFEAISL [YJL039C/NUP192], for which the protein stability index is, setting by setting: (doa10∆) 2.33 ± 0.1; (pdr5∆) 2.31 ± 0.12; (san1∆) 1.43 ± 0.15; (ubr1∆) 1.49 ± 0.079.

As to SKEFSAYVSGLFEIYRD [YJR042W/NUP85], the protein stability index came out at 1.76 ± 0.093 (doa10∆), 2.75 ± 0.15 (pdr5∆), 2.7 ± 0.19 (san1∆) and 2.31 ± 0.08 (ubr1∆).

Regarding HCITSITLALADAGIEL [MTR3], the protein stability index by setting is: (doa10∆) 1.5 ± 0.071; (pdr5∆) 1.86 ± 0.094; (ubr1∆) 1.55 ± 0.097.

Consider DTFGEGIIITDQSNVQY [BRR2], for which the protein stability index amounted to 3.11 ± 0.17 (doa10∆), 3.21 ± 0.13 (pdr5∆), 2.79 ± 0.1 (san1∆) and 2.94 ± 0.093 (ubr1∆).

Consider VTLDFGNIFADLLPNSF [SMC2], for which the protein stability index (doa10∆) amounted to 2.8 ± 0.1, the protein stability index (pdr5∆) stood at 2.86 ± 0.067, the protein stability index (san1∆) was determined as 3.07 ± 0.07 and the protein stability index (ubr1∆) was 2.91 ± 0.064.

On to KIPDTYTANTSAQSIAS [YAR002W/NUP60], for which the protein stability index is, setting by setting: (doa10∆) 1.99 ± 0.049; (pdr5∆) 2.13 ± 0.056; (san1∆) 2.07 ± 0.059; (ubr1∆) 2.56 ± 0.034.

Turning to KIKFDESSKLMTVTKVS [BRR2], the protein stability index is, setting by setting: (doa10∆) 1.75 ± 0.099; (pdr5∆) 1.36 ± 0.078; (san1∆) 1.5 ± 0.2; (ubr1∆) 1.35 ± 0.05.

Take FLNTPNNNINENELFND [SSN2]: the protein stability index runs as follows: (doa10∆) 2.94 ± 0.059; (pdr5∆) 3.06 ± 0.05; (san1∆) 2.86 ± 0.054; (ubr1∆) 2.88 ± 0.055.

As for LIRRLVRVGVLSEDKKK [RPS9A], the protein stability index worked out at 1.7 ± 0.24 (doa10∆), 1.45 ± 0.29 (pdr5∆) and 1.12 ± 0.18 (ubr1∆).

For NTTKTADTKAPTFTFGS [YLR335W/NUP2], the protein stability index reads like this: (doa10∆) 3.36 ± 0.08; (pdr5∆) 3.33 ± 0.063; (san1∆) 3.21 ± 0.061; (ubr1∆) 3.38 ± 0.057.

Turning to PRRFGKGSRQCRVCSSH [RPS29B], the protein stability index reads like this: (doa10∆) 2.96 ± 0.061; (pdr5∆) 3.06 ± 0.038; (san1∆) 2.97 ± 0.043; (ubr1∆) 2.912 ± 0.029.

On to VDIGGKQHAVLMLGSVN [RRP4], for which the protein stability index reads like this: (doa10∆) 2.06 ± 0.052; (pdr5∆) 2.66 ± 0.052; (san1∆) 2.68 ± 0.06; (ubr1∆) 2.6 ± 0.037.

Sequence EYYVMMDFANLWVFQAF [SRB8] yielded a protein stability index (doa10∆) of 2.37 ± 0.098, a protein stability index (pdr5∆) of 2.37 ± 0.082, a protein stability index (san1∆) of 2.63 ± 0.093 and a protein stability index (ubr1∆) of 2.64 ± 0.057.

The sequence KLSKILPRYQELTKEEA [SMC3] came in with a protein stability index (doa10∆) of 3.16 ± 0.11, a protein stability index (pdr5∆) of 3.34 ± 0.094, a protein stability index (san1∆) of 3.34 ± 0.086 and a protein stability index (ubr1∆) of 3.35 ± 0.1.

Consider EDEEEEEEVTDQLEDLR [QCR6], for which the protein stability index by setting is: (pdr5∆) 3.52 ± 0.28; (san1∆) 3.47 ± 0.083; (ubr1∆) 3.25 ± 0.089.

EINAVFNELCDPESRTQ [POP1]: the protein stability index runs as follows: (doa10∆) 2.91 ± 0.079; (pdr5∆) 3.01 ± 0.069; (san1∆) 2.75 ± 0.092; (ubr1∆) 2.93 ± 0.064.

As to TKPAIRRLARRGGVKRI [HHF1], the protein stability index came out at 3.04 ± 0.13 (doa10∆), 3.12 ± 0.16 (pdr5∆), 3 ± 0.16 (san1∆) and 3.45 ± 0.1 (ubr1∆).

Turning to LLLKLASPHASVRTAVF [ECM29], the protein stability index was 1.88 ± 0.048 (doa10∆), 1.87 ± 0.043 (pdr5∆), 1.57 ± 0.063 (san1∆) and 1.49 ± 0.029 (ubr1∆).

For IEPELFNGYNPEKKEMI [FAS2], the protein stability index runs as follows: (doa10∆) 3.18 ± 0.095; (pdr5∆) 3.25 ± 0.13; (san1∆) 3.33 ± 0.092; (ubr1∆) 3.43 ± 0.14.

With YATQVKTDNTVDKFDFY [RPT3], the protein stability index (doa10∆) was determined as 2.39 ± 0.05, the protein stability index (pdr5∆) amounted to 2.63 ± 0.055, the protein stability index (san1∆) was 2.49 ± 0.052 and the protein stability index (ubr1∆) turned out to be 2.62 ± 0.042.

On to DLSMVPKMKDEEYDDDD [SNF2], for which the protein stability index by setting is: (doa10∆) 2.9 ± 0.13; (pdr5∆) 3.22 ± 0.14; (san1∆) 3.24 ± 0.098; (ubr1∆) 2.99 ± 0.12.

Turning to CNGSALVEARSLGHQTS [MTR3], the protein stability index was 3.52 ± 0.17 (doa10∆) and 3.1 ± 0.22 (san1∆).

Consider SIVHINSQERVQDLGSA [SIR2], for which the protein stability index (doa10∆) was found to be 2.65 ± 0.069, the protein stability index (pdr5∆) was 3.14 ± 0.064, the protein stability index (san1∆) was found to be 2.99 ± 0.067 and the protein stability index (ubr1∆) stood at 2.59 ± 0.048.

As for LNARMFLKYYGAHKFLD [SIR2], the protein stability index reads like this: (doa10∆) 1.89 ± 0.092; (pdr5∆) 1.68 ± 0.097; (san1∆) 1.21 ± 0.12; (ubr1∆) 1.69 ± 0.066.

Turning to EELINAAKGSSTSYAIK [RPS5], the protein stability index is, setting by setting: (doa10∆) 2.66 ± 0.077; (pdr5∆) 1.88 ± 0.051; (san1∆) 1.43 ± 0.068; (ubr1∆) 1.76 ± 0.044.

KETTIEKLSSEIENLDK [YIL149C/MLP2]: the protein stability index runs as follows: (doa10∆) 2.94 ± 0.068; (pdr5∆) 2.89 ± 0.071; (san1∆) 2.9 ± 0.063; (ubr1∆) 3.15 ± 0.056.

Sequence NTPLSLPTRGTLESLEN [COR1] showed a protein stability index (doa10∆) of 3.21 ± 0.12, a protein stability index (pdr5∆) of 2.37 ± 0.08, a protein stability index (san1∆) of 2.6 ± 0.27 and a protein stability index (ubr1∆) of 2.41 ± 0.065.

As for TVRKSIACVLTVINEQQ [RPL35A], the protein stability index reads like this: (doa10∆) 1.62 ± 0.077; (pdr5∆) 2.07 ± 0.077; (san1∆) 2.21 ± 0.079; (ubr1∆) 2.11 ± 0.063.

On to KPNLNYFKSILLNKNTG [SWI1], for which the protein stability index runs as follows: (doa10∆) 2.17 ± 0.058; (pdr5∆) 2.19 ± 0.044; (san1∆) 1.76 ± 0.066; (ubr1∆) 1.75 ± 0.038.
